Reference: patent US20160272693A1 (ZEALAND PHARMA A S, published 2016)
*1 amine or outer side, *2 acyl side, *3 side chain or, on linkers, in order; H or OH if unused. Bridges are numbered along the chain shown (N, C = ends). [ ]: non-standard residue; d: D form. The star is where a group is joined. C20 diacid = O=C(O)CCCCCCCCCCCCCCCCCCC(=O)*; γGlu = O=C(O)[C@H](CCC(=O)[*:2])N[*:1]; Hyp = O=C(O)[C@@H]1C[C@@H](O)CN1; NMeI = CC[C@H](C)[C@H](NC)C(=O)O; Aad = N[C@@H](CCCC(=O)O)C(=O)O; Orn = NCCC[C@H](N)C(=O)O; Sar = CNCC(=O)O

B1: [19CD]-isoGlu-R-C( )-GTAT-C( )-ATERLAHFLTRSSF-Gly(Me)-A-Ile(Me)-LSSTEVGSGT-Hyp-NH2 (Compd. 13) (peptide)
peptide: {C20 diacid}-[γGlu]RCGTATCATERLAHFLTRSSF[Sar]A[NMeI]LSSTEVGSGT[Hyp]-NH2
modifications: disulfide 3-8
SMILES: CC[C@H](C)[C@@H](C(=O)N[C@@H](CC(C)C)C(=O)N[C@@H](CO)C(=O)N[C@@H](CO)C(=O)N[C@H](C(=O)N[C@@H](CCC(=O)O)C(=O)N[C@H](C(=O)NCC(=O)N[C@@H](CO)C(=O)NCC(=O)N[C@H](C(=O)N1C[C@H](O)C[C@H]1C(N)=O)[C@@H](C)O)C(C)C)[C@@H](C)O)N(C)C(=O)[C@H](C)NC(=O)CN(C)C(=O)[C@H](Cc1ccccc1)NC(=O)[C@H](CO)NC(=O)[C@H](CO)NC(=O)[C@H](CCCNC(=N)N)NC(=O)[C@@H](NC(=O)[C@H](CC(C)C)NC(=O)[C@H](Cc1ccccc1)NC(=O)[C@H](Cc1c[nH]cn1)NC(=O)[C@H](C)NC(=O)[C@H](CC(C)C)NC(=O)[C@H](CCCNC(=N)N)NC(=O)[C@H](CCC(=O)O)NC(=O)[C@@H](NC(=O)[C@H](C)NC(=O)[C@@H]1CSSC[C@H](NC(=O)[C@H](CCCNC(=N)N)NC(=O)CC[C@H](NC(=O)CCCCCCCCCCCCCCCCCCC(=O)O)C(=O)O)C(=O)NCC(=O)N[C@@H]([C@@H](C)O)C(=O)N[C@@H](C)C(=O)N[C@@H]([C@@H](C)O)C(=O)N1)[C@@H](C)O)[C@@H](C)O
B2: [19CD]-isoGlu-R-C( )-GTAT-C( )-ATERLAHFLTRSSF-Gly(Me)-A-Ile(Me)-LSSTEVGS-Aad-T-Hyp-NH2 (Compd. 12) (peptide)
peptide: {C20 diacid}-[γGlu]RCGTATCATERLAHFLTRSSF[Sar]A[NMeI]LSSTEVGS[Aad]T[Hyp]-NH2
modifications: disulfide 3-8
SMILES: CC[C@H](C)[C@@H](C(=O)N[C@@H](CC(C)C)C(=O)N[C@@H](CO)C(=O)N[C@@H](CO)C(=O)N[C@H](C(=O)N[C@@H](CCC(=O)O)C(=O)N[C@H](C(=O)NCC(=O)N[C@@H](CO)C(=O)N[C@@H](CCCC(=O)O)C(=O)N[C@H](C(=O)N1C[C@H](O)C[C@H]1C(N)=O)[C@@H](C)O)C(C)C)[C@@H](C)O)N(C)C(=O)[C@H](C)NC(=O)CN(C)C(=O)[C@H](Cc1ccccc1)NC(=O)[C@H](CO)NC(=O)[C@H](CO)NC(=O)[C@H](CCCNC(=N)N)NC(=O)[C@@H](NC(=O)[C@H](CC(C)C)NC(=O)[C@H](Cc1ccccc1)NC(=O)[C@H](Cc1c[nH]cn1)NC(=O)[C@H](C)NC(=O)[C@H](CC(C)C)NC(=O)[C@H](CCCNC(=N)N)NC(=O)[C@H](CCC(=O)O)NC(=O)[C@@H](NC(=O)[C@H](C)NC(=O)[C@@H]1CSSC[C@H](NC(=O)[C@H](CCCNC(=N)N)NC(=O)CC[C@H](NC(=O)CCCCCCCCCCCCCCCCCCC(=O)O)C(=O)O)C(=O)NCC(=O)N[C@@H]([C@@H](C)O)C(=O)N[C@@H](C)C(=O)N[C@@H]([C@@H](C)O)C(=O)N1)[C@@H](C)O)[C@@H](C)O
B3: [19CD]-isoGlu-R-C( )-NTAT-C( )-ATQRLAHFLHRF-Gly(Me)-A-Ile(Me)-LSSTEVGSETP-NH2 (Compd. 14) (peptide)
peptide: {C20 diacid-γGlu}-RCNTATCATQRLAHFLHRF[Sar]A[NMeI]LSSTEVGSETP-NH2
modifications: disulfide 2-7
SMILES: CC[C@H](C)[C@@H](C(=O)N[C@@H](CC(C)C)C(=O)N[C@@H](CO)C(=O)N[C@@H](CO)C(=O)N[C@H](C(=O)N[C@@H](CCC(=O)O)C(=O)N[C@H](C(=O)NCC(=O)N[C@@H](CO)C(=O)N[C@@H](CCC(=O)O)C(=O)N[C@H](C(=O)N1CCC[C@H]1C(N)=O)[C@@H](C)O)C(C)C)[C@@H](C)O)N(C)C(=O)[C@H](C)NC(=O)CN(C)C(=O)[C@H](Cc1ccccc1)NC(=O)[C@H](CCCNC(=N)N)NC(=O)[C@H](Cc1c[nH]cn1)NC(=O)[C@H](CC(C)C)NC(=O)[C@H](Cc1ccccc1)NC(=O)[C@H](Cc1c[nH]cn1)NC(=O)[C@H](C)NC(=O)[C@H](CC(C)C)NC(=O)[C@H](CCCNC(=N)N)NC(=O)[C@H](CCC(N)=O)NC(=O)[C@@H](NC(=O)[C@H](C)NC(=O)[C@@H]1CSSC[C@H](NC(=O)[C@H](CCCNC(=N)N)NC(=O)CC[C@H](NC(=O)CCCCCCCCCCCCCCCCCCC(=O)O)C(=O)O)C(=O)N[C@@H](CC(N)=O)C(=O)N[C@@H]([C@@H](C)O)C(=O)N[C@@H](C)C(=O)N[C@@H]([C@@H](C)O)C(=O)N1)[C@@H](C)O
B4: [19CD]-isoGlu-R-C( )-GTAT-C( )-ATERLAHFLHRSSF-Gly(Me)-A-Ile(Me)-LSSTEVGSNTP-NH2 (Compd. 15) (peptide)
peptide: {C20 diacid}-[γGlu]RCGTATCATERLAHFLHRSSF[Sar]A[NMeI]LSSTEVGSNTP-NH2
modifications: disulfide 3-8
SMILES: CC[C@H](C)[C@@H](C(=O)N[C@@H](CC(C)C)C(=O)N[C@@H](CO)C(=O)N[C@@H](CO)C(=O)N[C@H](C(=O)N[C@@H](CCC(=O)O)C(=O)N[C@H](C(=O)NCC(=O)N[C@@H](CO)C(=O)N[C@@H](CC(N)=O)C(=O)N[C@H](C(=O)N1CCC[C@H]1C(N)=O)[C@@H](C)O)C(C)C)[C@@H](C)O)N(C)C(=O)[C@H](C)NC(=O)CN(C)C(=O)[C@H](Cc1ccccc1)NC(=O)[C@H](CO)NC(=O)[C@H](CO)NC(=O)[C@H](CCCNC(=N)N)NC(=O)[C@H](Cc1c[nH]cn1)NC(=O)[C@H](CC(C)C)NC(=O)[C@H](Cc1ccccc1)NC(=O)[C@H](Cc1c[nH]cn1)NC(=O)[C@H](C)NC(=O)[C@H](CC(C)C)NC(=O)[C@H](CCCNC(=N)N)NC(=O)[C@H](CCC(=O)O)NC(=O)[C@@H](NC(=O)[C@H](C)NC(=O)[C@@H]1CSSC[C@H](NC(=O)[C@H](CCCNC(=N)N)NC(=O)CC[C@H](NC(=O)CCCCCCCCCCCCCCCCCCC(=O)O)C(=O)O)C(=O)NCC(=O)N[C@@H]([C@@H](C)O)C(=O)N[C@@H](C)C(=O)N[C@@H]([C@@H](C)O)C(=O)N1)[C@@H](C)O
B5: [19CD]-isoGlu-R-C( )-GTAT-C( )-ATERLAHFLTRSSF-Gly(Me)-A-Ile(Me)-LSSTEVGS-Orn-T-Hyp-NH2 (Compd. 11) (peptide)
peptide: {C20 diacid}-[γGlu]RCGTATCATERLAHFLTRSSF[Sar]A[NMeI]LSSTEVGS[Orn]T[Hyp]-NH2
modifications: disulfide 3-8
SMILES: CC[C@H](C)[C@@H](C(=O)N[C@@H](CC(C)C)C(=O)N[C@@H](CO)C(=O)N[C@@H](CO)C(=O)N[C@H](C(=O)N[C@@H](CCC(=O)O)C(=O)N[C@H](C(=O)NCC(=O)N[C@@H](CO)C(=O)N[C@@H](CCCN)C(=O)N[C@H](C(=O)N1C[C@H](O)C[C@H]1C(N)=O)[C@@H](C)O)C(C)C)[C@@H](C)O)N(C)C(=O)[C@H](C)NC(=O)CN(C)C(=O)[C@H](Cc1ccccc1)NC(=O)[C@H](CO)NC(=O)[C@H](CO)NC(=O)[C@H](CCCNC(=N)N)NC(=O)[C@@H](NC(=O)[C@H](CC(C)C)NC(=O)[C@H](Cc1ccccc1)NC(=O)[C@H](Cc1c[nH]cn1)NC(=O)[C@H](C)NC(=O)[C@H](CC(C)C)NC(=O)[C@H](CCCNC(=N)N)NC(=O)[C@H](CCC(=O)O)NC(=O)[C@@H](NC(=O)[C@H](C)NC(=O)[C@@H]1CSSC[C@H](NC(=O)[C@H](CCCNC(=N)N)NC(=O)CC[C@H](NC(=O)CCCCCCCCCCCCCCCCCCC(=O)O)C(=O)O)C(=O)NCC(=O)N[C@@H]([C@@H](C)O)C(=O)N[C@@H](C)C(=O)N[C@@H]([C@@H](C)O)C(=O)N1)[C@@H](C)O)[C@@H](C)O
B6: [19CD]-isoGlu-R-C( )-GTAT-C( )-ATERLAHFLTRSSF-Gly(Me)-A-Ile(Me)-LSSTEVGSFT-Hyp-NH2 (Compd. 10) (peptide)
peptide: {C20 diacid}-[γGlu]RCGTATCATERLAHFLTRSSF[Sar]A[NMeI]LSSTEVGSFT[Hyp]-NH2
modifications: disulfide 3-8
SMILES: CC[C@H](C)[C@@H](C(=O)N[C@@H](CC(C)C)C(=O)N[C@@H](CO)C(=O)N[C@@H](CO)C(=O)N[C@H](C(=O)N[C@@H](CCC(=O)O)C(=O)N[C@H](C(=O)NCC(=O)N[C@@H](CO)C(=O)N[C@@H](Cc1ccccc1)C(=O)N[C@H](C(=O)N1C[C@H](O)C[C@H]1C(N)=O)[C@@H](C)O)C(C)C)[C@@H](C)O)N(C)C(=O)[C@H](C)NC(=O)CN(C)C(=O)[C@H](Cc1ccccc1)NC(=O)[C@H](CO)NC(=O)[C@H](CO)NC(=O)[C@H](CCCNC(=N)N)NC(=O)[C@@H](NC(=O)[C@H](CC(C)C)NC(=O)[C@H](Cc1ccccc1)NC(=O)[C@H](Cc1c[nH]cn1)NC(=O)[C@H](C)NC(=O)[C@H](CC(C)C)NC(=O)[C@H](CCCNC(=N)N)NC(=O)[C@H](CCC(=O)O)NC(=O)[C@@H](NC(=O)[C@H](C)NC(=O)[C@@H]1CSSC[C@H](NC(=O)[C@H](CCCNC(=N)N)NC(=O)CC[C@H](NC(=O)CCCCCCCCCCCCCCCCCCC(=O)O)C(=O)O)C(=O)NCC(=O)N[C@@H]([C@@H](C)O)C(=O)N[C@@H](C)C(=O)N[C@@H]([C@@H](C)O)C(=O)N1)[C@@H](C)O)[C@@H](C)O
B7: [19CD]-isoGlu-R-C( )-NTAT-C( )-ATQRLADFLHRSSF-Gly(Me)-A-Ile(Me)-LSSTEVGSETP-NH2 (Compd. 1) (peptide)
peptide: {C20 diacid-γGlu}-RCNTATCATQRLADFLHRSSF[Sar]A[NMeI]LSSTEVGSETP-NH2
modifications: disulfide 2-7
SMILES: CC[C@H](C)[C@@H](C(=O)N[C@@H](CC(C)C)C(=O)N[C@@H](CO)C(=O)N[C@@H](CO)C(=O)N[C@H](C(=O)N[C@@H](CCC(=O)O)C(=O)N[C@H](C(=O)NCC(=O)N[C@@H](CO)C(=O)N[C@@H](CCC(=O)O)C(=O)N[C@H](C(=O)N1CCC[C@H]1C(N)=O)[C@@H](C)O)C(C)C)[C@@H](C)O)N(C)C(=O)[C@H](C)NC(=O)CN(C)C(=O)[C@H](Cc1ccccc1)NC(=O)[C@H](CO)NC(=O)[C@H](CO)NC(=O)[C@H](CCCNC(=N)N)NC(=O)[C@H](Cc1c[nH]cn1)NC(=O)[C@H](CC(C)C)NC(=O)[C@H](Cc1ccccc1)NC(=O)[C@H](CC(=O)O)NC(=O)[C@H](C)NC(=O)[C@H](CC(C)C)NC(=O)[C@H](CCCNC(=N)N)NC(=O)[C@H](CCC(N)=O)NC(=O)[C@@H](NC(=O)[C@H](C)NC(=O)[C@@H]1CSSC[C@H](NC(=O)[C@H](CCCNC(=N)N)NC(=O)CC[C@H](NC(=O)CCCCCCCCCCCCCCCCCCC(=O)O)C(=O)O)C(=O)N[C@@H](CC(N)=O)C(=O)N[C@@H]([C@@H](C)O)C(=O)N[C@@H](C)C(=O)N[C@@H]([C@@H](C)O)C(=O)N1)[C@@H](C)O

Each binder was assayed against T1, human amylin receptor 3 (hAMYR3), hCTR2 co-expressed with human receptor activity modifying protein 3 (hRAMP3) (human, UniProt P30988 25-474; O60896 24-148) (assay: cell-based or functional assay).
T1 sequence (looked up) 1: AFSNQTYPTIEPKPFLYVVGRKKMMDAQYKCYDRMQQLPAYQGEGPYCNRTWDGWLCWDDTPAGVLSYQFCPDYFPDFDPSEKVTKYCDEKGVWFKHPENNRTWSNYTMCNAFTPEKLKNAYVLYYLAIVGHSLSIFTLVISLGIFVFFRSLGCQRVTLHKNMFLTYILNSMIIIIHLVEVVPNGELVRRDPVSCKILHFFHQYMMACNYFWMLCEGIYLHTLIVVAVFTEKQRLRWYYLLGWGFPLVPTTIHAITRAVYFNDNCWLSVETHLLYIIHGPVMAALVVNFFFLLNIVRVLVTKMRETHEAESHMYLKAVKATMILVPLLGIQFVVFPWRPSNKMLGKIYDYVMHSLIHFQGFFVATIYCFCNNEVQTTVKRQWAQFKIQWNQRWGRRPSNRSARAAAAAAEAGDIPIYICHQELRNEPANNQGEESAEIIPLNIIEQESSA
T1 sequence (looked up) 2: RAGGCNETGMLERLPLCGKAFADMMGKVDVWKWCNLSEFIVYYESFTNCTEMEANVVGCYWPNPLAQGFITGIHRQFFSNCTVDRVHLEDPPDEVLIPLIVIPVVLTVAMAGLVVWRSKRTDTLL

In order of rising “hAMYR3 EC50 (nM); cAMP induction” value:
1. B4  0.079 nM
2. B5  0.2 nM
3. B7  0.23 nM
4. B2  0.25 nM
5. B3  0.26 nM
6. B6  0.35 nM
7. B1  0.38 nM
